Two molecules from paper PMC10344781 can be followed below.

The test addresses T1, single-chain mouse Trp2/H2-K^b (scpMHC), biotinylated (mouse | not stated).
T1 chain 1: SVYDFFVWL
T1 chain 2: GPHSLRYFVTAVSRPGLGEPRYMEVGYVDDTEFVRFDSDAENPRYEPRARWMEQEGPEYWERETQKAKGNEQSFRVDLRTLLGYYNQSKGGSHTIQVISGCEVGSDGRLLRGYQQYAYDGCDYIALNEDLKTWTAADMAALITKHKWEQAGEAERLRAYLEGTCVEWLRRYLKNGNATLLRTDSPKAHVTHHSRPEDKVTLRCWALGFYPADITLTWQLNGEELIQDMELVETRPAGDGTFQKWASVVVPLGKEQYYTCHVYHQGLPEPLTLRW
T1 chain 3: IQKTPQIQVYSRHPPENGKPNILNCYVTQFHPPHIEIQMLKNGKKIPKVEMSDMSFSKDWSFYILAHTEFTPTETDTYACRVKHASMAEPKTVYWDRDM
As to the kind of experiment: SPR. The conditions noted are these: modification not given, biotin on the biotinylation tag (BirA).

B1: mIgG2a clone 13 (wild-type mIgG2a) (protein)
chain 1: EVLLQQSGPELVKPGASVKIPCKASGYTFTDYYMDWVKQSHGKSLEWIGLINPNNGGTVYNQKFKGKATLTVDKSSSAAYMEVRSLTSEDTAVYYCARKPYTGHPAWFAYWGQGTLVTVSA
chain 2: DIQVTQSSSSFSVSLGDRVTITCKASEDIYNRLAWYQQKPGNAPRLLISGATSLETGVPDRFSGSGSRKDYTLIITSLQTEDVATYYCQQYYAFPLTFGAGTKLELK
The molecule B1 displayed a Kd of 2.5 nM and a koff of 0.00143 s⁻¹.

B2: purified scFv13 (Trp2/H2-K^b TCRm scFv clone 13) (protein)
chain 1: B1 chain 1
chain 2: B1 chain 2
Consider B2, for which, for the setting “scFv”, the Kd worked out at 8.6 nM and the koff was determined as 0.00121 s⁻¹.

As usually defined, the Kd is a measure of binding affinity in units of concentration. As a reminder, the koff is the first-order rate constant of dissociation. A low value points to slow dissociation.
